From publication PMC8249414, “Structural basis of ALC1/CHD1L autoinhibition and the mechanism of activation by the nucleosome” (Nature Communications, 2021)

Assays:
[1] = molecular target: T1, human ALC1 (residues 1-880) (human, UniProt Q86WJ1); assay: crystal structure; ALC1-scFv complex (mixed 1:1.1, purified on Superdex 200), crystallised in the presence of ADP-Mg; 3.5 Å; conditions: both partners purified
T1 construct: ALC1 (CHD1L), human, residues 1-880 cloned from cDNA; the crystallised construct holds the motor domain, the linker region and the macro domain; also called CHD1L; WT; source: E. coli Rosetta (DE3), purified (Ni-NTA, Source-15S, Superdex-200)

[2] = molecular target: histone H4 (in the nucleosome) (UniProt P62799 2-103); assay: cryo-EM structure; R857Q of ALC1 (30 μM) mixed with 167NCP (6 μM), ADP-BeFx, GraFix; single-binding map 2.8 Å; a class with two copies of ALC1 on the nucleosome 3.3 Å; conditions: both partners purified

Row | Binder | binding result [1] | binding result [2]
1 | single-chain antibody (scFv) against ALC1 used for crystallization (scFv, V domains shown, human scFv from a non-immunized yeast-display library; One of seven clones; also called the antibody; source: HEK293F, transfected, secreted, purified (Ni-NTA, Superdex 75)) VH: QVQLQQSGPGLVRPSQTLSLTCAISGDSVSDNDAAWNWVRQSPSRGLEWLGRTYYRSKWSNEYAVFVQSRITINPDTSKNQFSLHLNSVTPEDTAVYYCARATRPTGNGLDIWGQGTMVTVSS VL: SYVLTQPPSVSVAPGQTARITCGGNNIGSKSVHWYQQKPGQAPVLVVYDDSDRPSGIPERFSGSNSGNTAALTISRVEAGDEADYYCQVWDSSSDHVVFGGGTKLTVL | binds | –
2 | ALC1 R857Q mutant (enzyme, ALC1 (CHD1L), human, residues 1-880 with R857Q; the mutant was made by mutagenesis; also called R857Q of ALC1; source: E. coli Rosetta (DE3), purified (Ni-NTA, Source-15S, Superdex-200)) MERAGATSRGGQAPGFLLRLHTEGRAEAARVQEQDLRQWGLTGIHLRSYQLEGVNWLAQRFHCQNGCILGDEMGLGKTCQTIALFIYLAGRLNDEGPFLILCPLSVLSNWKEEMQRFAPGLSCVTYAGDKEERACLQQDLKQESRFHVLLTTYEICLKDASFLKSFPWSVLVVDEAHRLKNQSSLLHKTLSEFSVVFSLLLTGTPIQNSLQELYSLLSFVEPDLFSKEEVGDFIQRYQDIEKESESASELHKLLQPFLLRRVKAEVATELPKKTEVVIYHGMSALQKKYYKAILMKDLDAFENETAKKVKLQNILSQLRKCVDHPYLFDGVEPEPFEVGDHLTEASGKLHLLDKLLAFLYSGGHRVLLFSQMTQMLDILQDYMDYRGYSYERVDGSVRGEERHLAIKNFGQQPIFVFLLSTRAGGVGMNLTAADTVIFVDSDFNPQNDLQAAARAHRIGQNKSVKVIRLIGRDTVEEIVYRKAASKLQLTNMIIEGGHFTLGAQKPAADADLQLSEILKFGLDKLLASEGSTMDEIDLESILGETKDGQWVSDALPAAEGGSRDQEEGKNHMYLFEGKDYSKEPSKEDRKSFEQLVNLQKTLLEKASQEGRSLRNKGSVLIPGLVEGSTKRKRVLSPEELEDRQKKRQEAAAKRRRLIEEKKRQKEEAEHKKKMAWWESNNYQSFCLPSEESEPEDLENGEESSAELDYQDPDATSLKYVSGDVTHPQAGAEDALIVHCVDDSGHWGRGGLFTALEKRSAEPRKIYELAGKMKDLSLGGVLLFPVDDKESRNKGQDLLALIVAQHRDRSNVLSGIKMAALEEGLKKIFLAAKKKKASVHLPRIGHATKGFNWYGTEQLIRKHLAARGIPTYIYYFPRSKS | – | binds
